Assay results: patent US20210388081A1 (Memorial Sloan Kettering, published 2021)

T1: FcRL1, overexpressed on 3T3 cells (UniProt Q96LA6 17-429, limits assumed)
T1 construct: whole, on cells
T1 sequence (looked up): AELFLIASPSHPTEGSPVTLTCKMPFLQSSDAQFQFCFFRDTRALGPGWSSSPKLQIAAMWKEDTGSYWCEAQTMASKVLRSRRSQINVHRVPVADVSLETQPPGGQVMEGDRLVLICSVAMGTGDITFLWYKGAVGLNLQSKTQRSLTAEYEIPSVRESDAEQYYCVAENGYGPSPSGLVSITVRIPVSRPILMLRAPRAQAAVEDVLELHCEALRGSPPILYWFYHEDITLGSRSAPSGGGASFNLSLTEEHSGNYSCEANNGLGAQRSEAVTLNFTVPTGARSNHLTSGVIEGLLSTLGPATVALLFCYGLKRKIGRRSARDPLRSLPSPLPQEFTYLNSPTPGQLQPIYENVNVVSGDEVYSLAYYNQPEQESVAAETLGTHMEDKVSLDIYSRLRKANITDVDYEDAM

T2: FcRL2, overexpressed on 3T3 cells (UniProt Q96LA5 20-508, limits assumed)
T2 construct: whole, on cells
T2 sequence (looked up): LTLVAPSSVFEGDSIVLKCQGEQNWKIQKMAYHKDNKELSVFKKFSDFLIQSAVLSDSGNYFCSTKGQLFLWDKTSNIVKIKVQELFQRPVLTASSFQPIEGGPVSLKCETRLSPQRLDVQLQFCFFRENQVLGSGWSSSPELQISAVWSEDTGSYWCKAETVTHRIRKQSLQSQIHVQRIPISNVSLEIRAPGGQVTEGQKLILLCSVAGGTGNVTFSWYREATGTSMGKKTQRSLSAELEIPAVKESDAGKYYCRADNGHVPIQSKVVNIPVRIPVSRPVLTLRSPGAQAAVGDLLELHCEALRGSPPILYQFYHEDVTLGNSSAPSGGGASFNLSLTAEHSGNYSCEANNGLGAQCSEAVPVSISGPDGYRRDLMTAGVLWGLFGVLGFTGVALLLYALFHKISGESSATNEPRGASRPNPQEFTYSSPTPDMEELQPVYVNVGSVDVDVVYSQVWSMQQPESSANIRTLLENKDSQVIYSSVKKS

T3: FcRL4, overexpressed on 3T3 cells (UniProt Q96PJ5 20-515, limits assumed)
T3 construct: whole, on cells
T3 sequence (looked up): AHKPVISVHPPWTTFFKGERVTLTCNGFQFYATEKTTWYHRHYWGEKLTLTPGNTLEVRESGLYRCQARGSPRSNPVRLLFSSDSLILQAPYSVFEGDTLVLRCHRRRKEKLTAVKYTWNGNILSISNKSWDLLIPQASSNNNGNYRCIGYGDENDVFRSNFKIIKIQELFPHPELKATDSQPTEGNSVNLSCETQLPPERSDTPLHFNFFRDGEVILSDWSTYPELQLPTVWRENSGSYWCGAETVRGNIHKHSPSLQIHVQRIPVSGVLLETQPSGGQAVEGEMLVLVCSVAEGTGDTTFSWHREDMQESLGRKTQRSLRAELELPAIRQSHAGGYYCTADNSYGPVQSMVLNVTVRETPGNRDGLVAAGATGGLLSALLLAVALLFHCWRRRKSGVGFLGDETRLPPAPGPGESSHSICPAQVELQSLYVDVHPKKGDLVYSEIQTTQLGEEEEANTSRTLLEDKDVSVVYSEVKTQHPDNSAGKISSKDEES

T4: Fc Receptor-like 5 (FcRL5), full length, overexpressed on 3T3 or Raji cells (human, UniProt Q96RD9 16-977)
T4 construct: also called 3T3-FcRL5
T4 sequence: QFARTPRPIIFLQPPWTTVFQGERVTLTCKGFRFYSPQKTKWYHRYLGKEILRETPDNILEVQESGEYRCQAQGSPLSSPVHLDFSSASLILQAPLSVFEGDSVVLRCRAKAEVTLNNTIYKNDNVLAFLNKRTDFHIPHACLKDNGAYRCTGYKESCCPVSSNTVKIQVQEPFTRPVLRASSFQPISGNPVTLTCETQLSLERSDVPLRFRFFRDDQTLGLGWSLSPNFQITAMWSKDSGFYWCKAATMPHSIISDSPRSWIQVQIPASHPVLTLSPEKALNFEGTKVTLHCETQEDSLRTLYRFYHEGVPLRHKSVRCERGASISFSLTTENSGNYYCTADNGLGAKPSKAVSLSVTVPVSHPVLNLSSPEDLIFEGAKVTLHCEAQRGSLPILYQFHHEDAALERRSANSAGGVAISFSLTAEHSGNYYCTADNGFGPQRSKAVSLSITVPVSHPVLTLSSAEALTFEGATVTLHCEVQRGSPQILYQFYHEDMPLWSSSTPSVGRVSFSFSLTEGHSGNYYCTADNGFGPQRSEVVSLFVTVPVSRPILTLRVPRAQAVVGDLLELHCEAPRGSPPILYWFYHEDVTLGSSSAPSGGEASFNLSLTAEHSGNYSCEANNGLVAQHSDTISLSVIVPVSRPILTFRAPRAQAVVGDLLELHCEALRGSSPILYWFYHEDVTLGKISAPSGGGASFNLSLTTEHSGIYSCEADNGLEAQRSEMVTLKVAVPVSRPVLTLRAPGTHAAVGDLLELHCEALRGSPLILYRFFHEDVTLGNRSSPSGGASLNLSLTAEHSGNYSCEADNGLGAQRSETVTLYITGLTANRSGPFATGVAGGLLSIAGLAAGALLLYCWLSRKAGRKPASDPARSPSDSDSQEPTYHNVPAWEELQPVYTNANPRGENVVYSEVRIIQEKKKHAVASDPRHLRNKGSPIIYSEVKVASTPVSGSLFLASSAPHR

B1: ET200-123 (scFv)
scFv: QAVLTQPPSASGTPGQRVTISCSGSSSNIGSNTVNWYQQLPGTAPKLLMYNNDQRPSGVPDRFSGSKSGTSASLAISGLQSEDEADYYCAAWDDSLNGYVFGPGTKVTVLGSRGGGGSGGGGSGGGGSLEMAQVQLVESGAEVKKPGASVKVSCKASGYTFTSYGISWVRQAPGQGLEWMGWISAYNGNTNYAQKLQGRVTMTTDTSTSTAYMELRSLRSDDTAVYYCARDLSRGANPHYYYYYGMDVWGQGTTVTVSSTSGQAGQHHHHHHGAYPYDVPDYAS
notes: screened as phage clone; entry is VL-linker-VH-His tag-HA tag
B2: ET200-125 (scFv)
scFv: NFMLTQPHAVSESPGKTVTISCTRSSGSIASNYVQWYQQRPGSSPRTVIYEDNQRPSGVPGRFSGSIDSSSNSASLTISGLKTEDEADYYCQSYDSTSVLFGGGTKLTVLGSRGGGGSGGGGSGGGGSLEMAEVQLVQSGAEVKKPGSSVKVSCKASGGTFSSNSLSWVRQAPGQGLEWMGRIFPILGITNYAQKFQGRVTITADKSTSTAYMELSSLRSEDTAVYYCARGNYQWYDAFDIWGQGTMVTVSSTSGQAGQHHHHHHGAYPYDVPDYAS
notes: as for B1
B3: ET200-010 (scFv)
scFv: QSALTQPASVSGSPGQSITISCTGTSSDVGGYNSVSWYQQHPGKAPRLMIYDVSNRPSGVSNRFSGSKSGNTASLTISGLQAEDEADYYCSSYTSSSTPLVFGTGTKVTVLGSRGGGGSGGGGSGGGGSLEMAQVQLVQSGAEVKKPGASVKVSCKASGYTFTSYGISWVRQAPGQGLEWMGWISAYNGNTNYAQKLQGRVTMTTDTSTSTAYMELRSLRSDDTAVYYCARGAVAYHDWGQGTLVTVSSTSGQAGQHHHHHHGAYPYDVPDYAS
notes: as for B1
B4: ET200-124 (scFv)
scFv: SYVLTQPPSVSVAPGKTARISCGGNDIGSKSVFWYQQRPGQAPVLVVYDDSDRPSGLPERFSGFNSGNTATLTISRVEAGDEADYYCQVWDSSSDHYVFGTGTKVTVLGSRGGGGSGGGGSGGGGSLEMAQVQLVESGGGLVQPGRSLRLSCAASGFTFDDYAMHWVRQAPGKGLEWVSGISWNSGSIGYADSVKGRFTISRDNAKNSLYLQMNSLRAEDTALYYCAKDITYGSGSYGAFDIWGQGTMVTVSSTSGQAGQHHHHHHGAYPYDVPDYAS
notes: as for B1
B5: ET200-005 (scFv)
scFv: QPVLTQPPSVSVVPGKTARITCGGKNIGSKSVHWYQQKPGQAPVVVIHYDSDRPSGIPERFSGSNSGNTATLTISRVEAGDEADYYCQVWDSSSDHPYVFGTGTKVTVLGSRGGGGSGGGGSGGGGSLEMAQVQLVQSGAEVKKPGASVKVSCKASGYTFTNYGISWVRQAPGQGLEWMGWISAYNGNTNYAHKLQGRVTMTTDTSTSTANMELRSLRPDDTAVYYCARSYFGSHDYWGQGTLVTVSSTSGQAGQHHHHHHGAYPYDVPDYAS
notes: as for B1
B6: ET200-009 (scFv)
scFv: QSVLTQPPSASGTPGQTVTISCSGSNSNIGSNYVYWYQQLPGTAPKLLIYRNNQRPSGVPDRFSGSKSGTSASLAISGLRSEDEADYYCAAWDDSLSAYVFGTGTKVTVLGSRGGGGSGGGGSGGGGSLEMAQVQLVQSGAEVKKPGASVKVSCKASGYTFTSYGISWVRQAPGQGLEWMGWISAYNGNTNYAQKLQGRVTMTTDTSTSTAYMELRSLRSDDTAVYYCARSSGNMVSWKDMWGQGTLVTVSSTSGQAGQHHHHHHGAYPYDVPDYAS
notes: as for B1

These binders were tested against SLAMF9 protein (UniProt Q96A28 19-236, limits assumed) (assay: phage clone on SLAMF9 protein).
Sequence of SLAMF9 protein (Q96A28 19-236 limits assumed): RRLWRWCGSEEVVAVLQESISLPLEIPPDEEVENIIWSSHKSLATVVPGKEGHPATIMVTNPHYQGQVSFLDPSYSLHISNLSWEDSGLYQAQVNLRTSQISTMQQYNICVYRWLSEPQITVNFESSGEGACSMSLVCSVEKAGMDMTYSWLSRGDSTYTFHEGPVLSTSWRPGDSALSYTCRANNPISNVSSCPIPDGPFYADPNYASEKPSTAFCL

Binder	binding result
B1	no binding
B2	no binding
B3	no binding
B4	no binding
B5	no binding
B6	no binding

Each binder was assayed against T1, FcRL1, overexpressed on 3T3 cells (assay: phage clone on 3T3-FcRL1 cells).

Binder	binding result
B1	no binding
B2	no binding
B3	no binding
B4	no binding
B5	no binding
B6	no binding

The binders below were run against T2, FcRL2, overexpressed on 3T3 cells (assay: phage clone on 3T3-FcRL2 cells).

Binder	binding result
B1	no binding
B2	no binding
B3	no binding
B4	no binding
B5	no binding
B6	no binding

What follows are binders tested against T3, FcRL4, overexpressed on 3T3 cells (assay: phage clone on 3T3-FcRL4 cells).

Binder	binding result
B1	no binding
B2	no binding
B3	no binding
B4	no binding
B5	no binding
B6	no binding

The binders below were run against T4, Fc Receptor-like 5 (FcRL5), full … (assay: phage clone screening on cells).
Procedure, shortened: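 scFv phage clones were incubated with live 3T3 cells overexpressing full-length FcRL5, then detected with mouse anti-M13 mAb and PE-anti-mouse Ig by flow cytometry. 3T3 cells expressing FcRL1, 2, 3, 4 or 6 served as negative-control targets.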

Binder	binding result
B1	binds
B2	binds
B3	binds
B4	binds
B5	binds
B6	binds
